{
  "source": "IntAct's records for PubMed 19666841",
  "parents": {"B1": {"name": "Glycerol-3-phosphate dehydrogenase 1-like protein (Homo sapiens), Q8N335 (parent)", "chain": "MAAAPLKVCIVGSGNWGSAVAKIIGNNVKKLQKFASTVKMWVFEETVNGRKLTDIINNDHENVKYLPGHKLPENVVAMSNLSEAVQDADLLVFVIPHQFIHRICDEITGRVPKKALGITLIKGIDEGPEGLKLISDIIREKMGIDISVLMGANIANEVAAEKFCETTIGSKVMENGLLFKELLQTPNFRITVVDDADTVELCGALKNIVAVGAGFCDGLRCGDNTKAAVIRLGLMEMIAFARIFCKGQVSTATFLESCGVADLITTCYGGRNRRVAEAFARTGKTIEELEKEMLNGQKLQGPQTSAEVYRILKQKGLLDKFPLFTAVYQICYESRPVQEMLSCLQSHPEHT"}},
  "data": [
    {"variants_of": "B1", "conditions": "with scn5a_human SCN5A", "values": [
      {"variant": "A280V", "effect of a mutation on the interaction": "with no effect"},
      {"variant": "E83K", "effect of a mutation on the interaction": "with no effect"}
    ]}
  ]
}
